Patent US20240327512A1 (DUKE UNIVERSITY, published 2024)
Residue numbers refer to the chain shown, from its start.

T1: human TREM2 (Triggering Receptor Expressed on Myeloid cells-2), wild-type (human, UniProt Q9NZC2 19-230)
T1 sequence (looked up): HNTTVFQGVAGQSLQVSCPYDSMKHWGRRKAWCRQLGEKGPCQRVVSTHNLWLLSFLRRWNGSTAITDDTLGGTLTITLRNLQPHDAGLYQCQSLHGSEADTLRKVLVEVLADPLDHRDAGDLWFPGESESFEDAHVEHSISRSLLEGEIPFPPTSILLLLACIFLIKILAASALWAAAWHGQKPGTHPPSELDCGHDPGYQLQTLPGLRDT

B1: antibody clone 9D10 (antibody, V domains shown)
VH: EVQLVESGGGLVQPGRSLKLSCAASGFTFSDYGMAWVRQAPTKGLEWVASISNSGGRTFYRDSVKGRFTVSRDNAKSTLYLQMDSLRSEGTATYYCTTIGGGSTFDYWGQGVMVTVSS
VL: DVVMTQTPPSLSVAIGQSVSISCKSSQSLVYSDGKTYLHWLLQSPGRSPKRLIYQVSNLGSGVPDRFSGTGSQKDFTLKISRVEAEDLGVYYCAQTTHFPPTFGSGTKLEIK
B2: antibody clone 7F12 (antibody, V domains shown)
VH: B1 VH with D31N, A49T, N53Y, F59Y, V70I, G90D, T91S, T98P, I99V
VL: B1 VL
B3: antibody clone 14B3 (antibody, V domains shown)
VH: B1 VH with T28S, D31N, S54N, V70I, D84H, G90D
VL: B1 VL with I21M, R47G
B4: antibody clone 13F4 (antibody, V domains shown)
VH: B1 VH with Q3H, G26R, D31N, G66A, V70I, N74S, K76E, G90D
VL: B1 VL
B5: antibody clone 21A3 (antibody, V domains shown)
VH: EVKLLESGGGLVQPGGSMRLSCAASGFTFTDFYMNWIRQPAGKAPEWLGLIRNKANGYTTQYNPSVKGRFTISRDNTQNMLYLQMNTLRGEDTATYYCARIGINNGGSLDYWGQGVMVTVSS
VL: DILINQSPASLTVSAGEKVTMSCKSSQSLLYSEKNQDYLAWYQQKPGQSPKLLMYGASYRHTGVPDRFTGSGSGTDFTLTISSVQAEDLADYYCEQTYSYPYTFGAGTKLELK
notes: Rat monoclonal IgG from hybridoma; also called TREMX antibody
B6: antibody clone 8A11 (antibody, V domains shown)
VH: B5 VH with A55T, N56K, Q61E, P64T, T87S, G90P, I103V
VL: B5 VL with N5I, E17A, K18R, K34N, S49F, M54I, Y59N
notes: as for B5
B7: antibody clone 1G6 (antibody, V domains shown)
VH: B5 VH with M18L, A23V, Y58F, Q61E, N79H, G90A
VL: B5 VL with A15T, K34N, N35K, S49F, M54I, Y59N, S82N, S83I
notes: as for B5
B8: antibody clone 7A12 (antibody, V domains shown)
VH: B5 VH
VL: B5 VL
notes: as for B5
B9: antibody clone 18F9 (antibody, V domains shown)
VH: B5 VH with A23V, A24V, P40A, A55V, T59R, Q61E, T77I, G90A
VL: B5 VL with K34N, S49F, M54I, Y59N
notes: as for B5
B10: antibody clone 14D8 (antibody, V domains shown)
VH: B5 VH with Q61V
VL: B5 VL with A15T, K24R, S49F, M54I
notes: as for B5
B11: antibody clone 10C3 (antibody, V domains shown)
VH: B5 VH with K43E, A44T, A55T, N56K, Q61E, T87S, G90P, I103T
VL: B5 VL with N5I, E17A, K18R, K34N, S49F, M54I, Y59N
notes: as for B5
B12: antibody clone 15C5 (antibody, V domains shown)
VH: B5 VH with N56Y, Q61E, N79D, G90A, N105Y
VL: B5 VL with M21V, K34S, S49F, M54I, D91H
notes: as for B5
B13: antibody clone 14D3 (antibody, V domains shown)
VH: B5 VH with S7F, K43R, A55T, N56K, Q61E, P64R, T87S, G90P, I103V
VL: B5 VL with N5I, E17A, K18R, K34N, S49F, M54I, Y59N
notes: as for B5

What follows are binders tested against T1, human TREM2 (Triggering Receptor …) (assay: cell-based or functional assay).

decrease of TREM2 cleavage [%] | increase of the level of mature TREM2 [fold] | Binder
~70 | ≤ 5 | B1
~70 | ≤ 5 | B2
~70 | ≤ 5 | B3
~70 | ≤ 5 | B4

These binders were tested against T1, human TREM2 (Triggering Receptor …) (assay: hybridoma supernatant screen: peptide ELISA and detection of TREM2 on the cell surface).
Experimental: Human TREM2-reactive hybridoma supernatants are screened for their ability to detect TREM2 on the cell surface of HEK293 Flp-In cells stably overexpressing human wild-type TREM2. This procedure is described in Kleinberger, G., et al., TREM2 mutations implicated in neurodegeneration impair cell surface transport and phagocytosis. Sci Transl Med, 2014. 6(243): p. 243. In particular, HEK293 Flp-In cells either expressing human full-length TREM2 or empty vector (control) are incubated with the respective TREM2-reactive supernatants. Binding of TREM2-reactive supernatants is visualized using isotype-specific antibodies. A detailed description of the generation and selection of monoclonal antibodies against the TREM2 cleavage site is given in the Examples.
A peptide comprising the amino acid sequence of residues 145-155 (SEQ ID NO:2) of human TREM2 or residues 153-162 (SEQ ID NO:3) of human TREM2 was synthesized and coupled at the N-terminus to ovalbumin or biotin (Peps4LS, Heidelberg, Germany). Rats were immunized subcutaneously (s.c.) and intraperitoneally (i.p.) with a mixture of 50 μg OVA-coupled peptide in […] PBS, 5 nmol CpG2006 (TIB MOLBIOL, Berlin, Germany), and […] incomplete Freund's adjuvant. After 6 weeks, a boost without Freund's adjuvant was given i.p. and s.c. 3 days before fusion. Fusion of the myeloma cell line P3X63-Ag8.653 with the rat immune spleen cells was performed using polyethylene glycol 1500 according to standard procedure (Koehler and Milstein, Nature. 1975, 256:495-497). After fusion, the cells were plated in 96-well plates using RPMI 1640 with 20% fetal calf serum, penicillin/streptomycin, glutamine, pyruvate, and non-essential amino acids supplemented with HAT HybriMax medium supplement (Sigma,). Hybridoma supernatants were tested in an enzyme-linked immunoassay using biotinylated peptides (0.2 μg/ml) comprising the amino acid sequence of residues 145-155 of human TREM2 or residues 153-162 of human TREM2 bound to avidin-coated plates. After blocking with PBS/2% FCS, hybridoma supernatants were added for 30 min. After one wash with PBS, bound antibodies were detected with a cocktail of HRP-conjugated mAbs against the four rat IgG isotypes. HRP was visualized with ready to use TMB substrate (1-Step™ Ultra TMB-ELISA, Thermo).

binding result | Binder
binds | B5
binds | B6
binds | B7
binds | B8
binds | B9
binds | B10
binds | B11
binds | B12
binds | B13
